Reference: the nanobody polyreactivity screen of Harvey et al. (2022)

Assay: yeast display, Sf9 membrane polyspecificity reagent, FACS + sequencing; frameworks hold sequencing errors
Outline: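 Nanobodies came from a synthetic yeast display library in Saccharomyces cerevisiae BJ5465, induced with galactose for 36–48 hours and stained for 1 hour at 4 °C with 10% biotinylated, detergent-solubilized Sf9 membrane reagent. Cells were enriched on streptavidin microbeads and then FACS-sorted, with low and high (top ~1%) gates set on anti-HA fluorescence for expression and streptavidin fluorescence for reagent binding. Each polyreactivity label reflects the gate a clone came from. Genes were amplified by colony PCR, sequenced by MiSeq 2 × 250 and filtered by CDR length.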

| Sequence | polyreactivity (PSR sort gate) |
| --- | --- |
| QVQLVESGGGLVQAGGSLRLSCAASGRTFPSYTMGWYRQAPGKERELVAAITWTGGSTYYADSVKGRFTISRDNAKNTVYLQINSLKREDTAVYYCADYEYWGQGTQVTVSS | low polyreactivity |
| QVHLVESGGGLVQAGGSLRLSCAASGRIFSWYTMGWYRQAPGKERELVAVITSGGTTKYADSVKGRFTISRDNAKNTVYLQMNSLKPEDTAVYYCNVAGRDYAVRWGSFDYWGQGTQVTVSS | low polyreactivity |
| QVQLVESGGGLVQAGGSLRLSCAASGFTFYKNTMGWYRQAPGKVRELVAAISSSGSSTYYADSVKGRFTISRDNAKNTVYLQMNSLKPEDTAVYYCAAGRFAYHDDYWGQGTHVTVSS | high polyreactivity |
| QVQLVESGGGLVQAGGSLRLSCAASGSIFVYNAMGRYRQAPGKERELVAAISRSGASTYYADSVKGRFTISRDNAKNTVYLQMNSLKPEDTAVYYCAAEFRQGGYTFGYWGQGTQVTVSS | high polyreactivity |
| QVQLVESGGGLVQAGGSLRLSCAASGSTFYRYAMGWYRQAPGKERELVAAISSDGTTYYADSVKGRFTISRDNAKNTVYLQMISLKPEDTAVYDCAAEGIRRSQRFNYWGQGTQVTVSS | high polyreactivity |
| QGQHVETGGGLVQAGCTLRLSCAASGFTCGNYAMGWYRQAPGKGRELVAAIDSDGSTDYADAVKGRFTISRDNAKNTVYLQMNSLKPEDTAVYYCAARFDYGPRGCDYWGPGTQVTVSS | low polyreactivity |
| QVQLVESGGGLVQAGGSLRLSCAASGITFRWYAMGWYRQAPGKERELVAAISSSGGSTYYADSVKGRFTISRDNAKNTVYLQMNSLKPEVTAVYYCAAYTSYASDYWGQGTQVTVSS | high polyreactivity |
| QVQLVESGGGLVQAGGSLRLSCAASGLIFYDNMGWYRQAPGKERELVAAISSSGGSTSYADSVKGRFTISRDNAKNTVYLQMNSLKPADTAVYYCAADSYPAYLGFVGFDYWGQGTQVTVSS | low polyreactivity |
| QVQLVESGGGLVQAGGSLRLSCAASGLTFRYNAMGWYRQATGKERELVARISRNGGRTYYADSVKGRFTISRDNAKNTVYLQMNSLKPEDTAVYYCNVVYFVTTSPGYDYWGQGTQVTVSS | high polyreactivity |
| QVQLVESGGGLVQAGGSLRLSCAASGSIFGANAMGWYRQAPGKERELVAAISTRGGRTYYADSVKARFTISRDNAKNTVSLQMNSLKPEDTALYYCAARRFSKVRSMYYWRQGTQVTVSS | high polyreactivity |
| QVQLVESGGGLVQAGGSLRLSCAASGSTFRYYAMGWYREAPGKEREFVAAISLRAGSTYYADSVKGRFTISRDNAKNTVYLQMNSLKPEDTAVYYCAARRASYGTRRYDYWGQGTQVTVSS | high polyreactivity |
| QVQLVESGGGLVQAGGSLRLSCAASGSIFLFYTMGWYRQAPGKERELVASSSGGGTHYADSVKGRFTISRDNAKNTVYLQMNSLKPEDTAVYYCATPNKNGQNLGGVWEAYDYWGQGTQVTVSS | low polyreactivity |
| QVHLVESGGGLVQAGGSLRLSCAASGSISTNYPMGWYRPAPGKERQLVAAISSSGGSTYYADSVKGRFTISRDNAKYTVYLQMNSLKPEDTAVYYCAATYWGRAYQGYRNLRYGYWGQGTQVTVSS | high polyreactivity |
| QVQLVESGGGLVQAGGSLRLSCAASGSIFGKNAMGWYRQAPGKERELVAAITSTGTSTYYADSVKGRFTISRDTAKNTVYLQMNSLKAEDTAVYYCADETARWDYGYWGQGTQVTVSS | low polyreactivity |
| QVQLVESGGGLVQAGGSLSLSCAASGSTFYANAMGWYRQAPGKEREFVAAISYNGGSTYYADSVKGRFTISRDNAKNTVYFQMNSLKPEDTAVYYCNVDYDYPYYEVDYWGQGTQVTVSS | low polyreactivity |
| QVQLVESGGGLVQAGGSLRLSCAASGSIFFGYGMGWYRQAPGKERELVATITTSGGTYYADSVKGRFTISRDNAKNTVYLQMNSLKPEDTAVYYCAATAAALDGNTIMYYWGQGTQVTVSS | low polyreactivity |
| QGQLVESGGGLVQAGGSLRLSCAASGITFGDNAMGWYRQAPGKERELVAAISSGGSTDYADSVKGRFTISRDNAKNTVYLQMNSLKPEDTAVYYCAFDWVSVPEYDYWGQGTQVTVSS | low polyreactivity |
| QDQIVESGGGLVQAGGSLRISCAPSGSILGYYGMGWYRQAPGKERELVAAISSSGNTNYADSVKGRFTISRDNAKNTVYFQMNSLKPDDTAVYYCAASFQYVAYFLYVYWGQGTQVTVSS | low polyreactivity |
| QVQLVESGGRLVQAGGSLRLSCAASGRTFSTNVMGRYRQAPGKVRELVAAITTSSSRTYYADSVKGRFTISRDNAKNTVYLQMNSLKPEDTAVYYCAAGIHGSWSFDYWGQGTQVTLSS | low polyreactivity |
| QVQLVDSGGGLVQAGGSLRLSCAASGFTFRYYAMGWYRQAPGKERELVAAISSSGTRTYYADSVKGRFTISRDNAKTTVYLQMNSLKPEDTAVYYCNAVSPTSTVDYWGQGTQVTVSS | high polyreactivity |
| QVQLVESGGGLVQAGGSLRLSCAASGFTFYLYALGWYRQAPGKERELVAAITYSGGSTYYADSVKGRFTISRDNAKNTVYLQMNSLKPEDTAVYYCAADARGKVYWGQGTQVTVSS | high polyreactivity |
| QVQMQESRGGLVQAGGSLRLSCAASGTITTLPAMGWNRQAPGKEREFVAGIDTGAITNYADSVKGRFTISRDNAKNTVYLQKNSLKPEVTAVYYCAVFPAAYDYYERYYTYWGQGTQVTVMS | low polyreactivity |

| Sequence | polyreactivity (PSR sort gate) |
| --- | --- |
| QVQLVESGGGIVQAGGRLRLSCAASGNTFQDYAMGWYRQAPGKERELVAAINSGGSTNYADSVKGRFTISRDNAKNTVYLQMNSLKPEDTAVYYCAAEPGEGFDYWGQGTQVTVSS | low polyreactivity |
| QVQLVESGGGLFQAGGTHRLSCAASGFISKYYAMGWYRQAPGKERELVSSISRDGSTSYADSVKGRFTISRDNAKNTVYLQMNSLKAEDSAVYYCAAPSYRTRYYYWGQGTQVTVSS | high polyreactivity |
| QVQLVESGGGLVQAGGSLRLSCAASGSTFDYNAKGSYRQAPGKERELVAVISSSGGSTYYADSVKGRFTISRDIAMNTVYLQMNSLKPVDTAVYYCAALYRNYGSSYAYYYWGLGTQVTVSS | low polyreactivity |
| QVRLVESGGGLVQAGGSLRLSCAASGSTFQINAMGWYRQAPGKEREFVAAITVSSGSTYYADSVKGRFTISRDNAKNTVYLQMNSLKPEDTAVYYCAATSKPLGLQTYGYWGQGTQVTVSS | low polyreactivity |
| QVQLVESGGGLVQAGGSLRLSCAASGSIFHNNAMGWYRQAPGKERELVASITSRGGSTYYADSVKGRFTISRDNAKNTVYLQMNSLKPEDTAVYYCAARPYARVKTHGYWGQGTQVTVSS | low polyreactivity |
| QVQLVESGGGLVQAGGSLRLSCAASGRIFYYNAMGWYRPAPGKERELVATITGSGGSTYYADSVKGRFTISRDNAKNTVYLQMNSLKPEDTAVYYCNATRWYYDFYKLDYWGQGTQVTVSS | low polyreactivity |
| QVQLVESGVGLVQAGGSLRLSCAASGSIFTYNAMGLYRQAPGKERELVAAISRRGGTTYYADSVKGRITISRDNAMNTVYLKMNSLKPEDTAVYYCNVARHYAVESGFWGPGTQVTVSS | high polyreactivity |
| QVQLVESGGGLVQAGGSLRLSCAASGSTFYSNAMGWYRQAPGKERELVAAINYSGGGTYYADSVKGRFTISRDNAKNTVYLQMNSLKPEDTAVYYCAADGSYVHWEYGYWGQGTQVTVSS | low polyreactivity |
| QVQLVESGGGLVQAGGILRLSCAASGLIFITYAMGWYRQAPGKERELVATITLRGGSTYYADSVKGRFTISRDNAKNTVYLQMNSLKPEDTAVYYCAADVGYWGRSRGYPSDDYDYWGQGTQVTVSS | low polyreactivity |
| QVQLVESGGALVQAGGSLRLSCAASGFTFLIYAKGWYIQAPGKERELVAAITWRGSGTYYADCVKGRFTISRDNGQNTVYLQMNSLKPEDSAVYYCAARTARRTYDYWGQGTQVTVSS | low polyreactivity |
| QGQLVESGGGLVQAGGSLRLSCAASGSIFRSYAMGWYRQAPGKERELVASISRRGGSTYYADSVKGRFTISRDNAKNTVYLQMNSLKPEDTAVYYCAAVRYNSRVSTSPSEMYYWGQGTQVTVSS | low polyreactivity |
| QVQLVESAGGLVQAAGSLRLSCDASGFIFGTNAMGWYRQAPGKERELVAAINGRGGGTYYADSVKGRFTISRDNAKNTVYLQMNSLKPEDTAVYYCAASRFDYWGQGTQVTVSS | low polyreactivity |
| QVQLVESGGGLVQAGGILRISCAASGRTSYWYAMAWYRQAPGKERELVADISWSGGSTYYADSVKGRFTISRDNAKNTVYLQMNSLNPEDTAVYYCIGAEQKYSIYYAFDTGPYDYWGQGTQVTVSS | low polyreactivity |
| QVQLVESGGGLVQAGVSLRLSCAASGSTFTYNAKGWYRQEPGKEMELVAAIRSNGGSTYADSVKGRFTISRDNAKNTVYFQMNSMKPEDTAVYYCAARWRDYYRWGSRGGYGYWGQGTQVTVSS | high polyreactivity |
| QVQLGESGGGLVQAGGSLRLSCAASGRTFPYNAMGWYRQAPGKERELVAAISSGGSTNYADSVKGRFTISRDNAKNTVYLQMNSLKQEDTAVYYCAVTGWPRYTWYSYGYWGQGTQVTLSS | low polyreactivity |
| QVQLVESGGGLVQAGGSLRLSCAASGFIFDINAMGWYRQAPGTERELVADIRGGGSTYYADSVKGRFTISRDNAKNTVYVQMNSLKPEDTAVYYCNALDSYRHRPFDYWGQGTQVTVSS | low polyreactivity |
| QVQLVESGGGLVQAGGSLRLSCAASGFIFGSNAMGWYRQAPGKERELVAAIDSSGGRTYYADSVKGRFTISRDNAKNTVYLQMISLKPEDTAVYYCNVYRWSQLFEYDYWGQGTQVTVSS | high polyreactivity |
| QVQLVESGGGLVQAGGSLRLSCAASGRTFTRYAMGWYRQAPGKERELVASITTGGRTYYADSVKGRFTISRDNAKNTVYLQMNSLKPEDTAVYYCAARTYGGFEYWGQGTQVTVSS | high polyreactivity |
| QVQLVESGGGLVQAGGSLRLSCAASGFTSWDNDMGWYRQAPGKERELVAAISRGGSTNYADSVKGRFTISRDNAKNTVYLQMNSLNPEDTAVYYCAAEDWYQRYGYEYDYWGQGTQVTVSS | low polyreactivity |
| QVQLVESGGGLVQVGGSLRLSCAASGSIFVENAMGWYRQAPGKERELVAAITSGGSTNYADSVKGRFTISRDNAKNTVYLQMNSLKPEDTAVYYCNADENYGYYTHFGYWGQGTQVTVSS | low polyreactivity |
| QVQLVESVGGLVQAGGSLRLSSASSGRIFWDYAIGCYRQAPGKERELVASISTDGSTYYADSVKGRFTISRDNAKNTVYLQMNSLKPEDTEVYFCAVRGLYRYIRWGYPSYYYWGLGTQVTVSS | low polyreactivity |
